B1: ZW107 (antibody, V domains shown)
VH: QVQLQQSGAELVRPGTSVKISCKASGYAFTNYWLGWVKQRPGHGLEWIGDIYPGNGNNYYSEKFKDKATLTADKSSSTVYIRLSSLTSEDSAVYFCARHGSFRSAMDYWGQGTSVTVSS
VL: DIQMTQSPASPSASVGETVTITCRASENIYSYLAWYQQKQGKSPQLLVYNAKTLADGVPSRFSGSGSGTQFSLKINSLQPEDFGSYYCQHHYGTPPTFGGGTKLEIK
notes: Mouse monoclonal antibody against human 4-1BB; also called clone ZW107; 4-1BB mAb
B2: ZW103 (antibody, V domains shown)
VH: QVQLQQSGAELVRPGVSVKISCKGSGYTFTDYAMHWVKQSHVKSLEWIGGISTYNGDASYNQKFKGKATMTVDKSSRTAYMELVRLTSEDSAIYYCAPSNYGYAMDYWGQGTSVTVSS
VL: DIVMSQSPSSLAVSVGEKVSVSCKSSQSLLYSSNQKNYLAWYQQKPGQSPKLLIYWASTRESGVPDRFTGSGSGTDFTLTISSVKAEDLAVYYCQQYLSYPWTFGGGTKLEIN
notes: Mouse monoclonal antibody against human 4-1BB from a hybridoma; also called clone ZW103; 4-1BB mAb
B3: ZW106 (antibody, V domains shown)
VH: QVQLQQPESELVRPGGSVKLSCKASGYTFTSYWMDWVKQRHGQGLEWIGNIYPDSGGTNYAEKFKSKATLTVDTSSSTAYMHLSSLTSEDSAVYYCTREEALGGYYELTYWGQGTLVTVSA
VL: DIVLTQSPASLPVSLGQRATISCRASQSVSTSSYSYMHWYQQKPGQPPKLLIKYASNLESGVPARFSGSGSGTDFTLNIHPVEEEDTATYYCQHSWEIPYTFGGGTKLEIE
notes: Mouse monoclonal antibody against human 4-1BB; also called clone ZW106; 4-1BB mAb
B4: ZW104 (antibody, V domains shown)
VH: QVQLQQSGAELARPGASVKMSCKASGYIFTTYAMHWVKQRPGQGLEWIGYINPTTVYTIYNQKFKDKATLTADKSSSTAYMQLSSLTSEDSAVYYCARLGGHWYFDVWGAGTTVTVSS
VL: not shown
notes: Mouse monoclonal antibody against human 4-1BB from a hybridoma; also called clone ZW104; 4-1BB mAb

What was measured:
[1] = molecular target: T1, human 4-1BB (human, UniProt Q07011 24-255); experiment: binding to 293T cells expressing human 4-1BB
T1 construct: whole, on cells; Also used here for the native receptor on human T cells in the co-stimulation assay; also called CD137; h4-1BB
T1 sequence (Q07011 24-255): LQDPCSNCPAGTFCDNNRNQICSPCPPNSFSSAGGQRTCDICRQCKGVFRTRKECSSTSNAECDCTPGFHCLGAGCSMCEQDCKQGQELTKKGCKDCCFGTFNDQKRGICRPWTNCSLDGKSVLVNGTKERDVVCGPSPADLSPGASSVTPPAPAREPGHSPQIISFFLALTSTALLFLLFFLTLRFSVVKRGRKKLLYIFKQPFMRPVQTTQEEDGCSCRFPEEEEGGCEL

[2] = molecular target: T1, human 4-1BB; experiment: flow cytometry, staining of 293T cells transfected with human 4-1BB, compared with untransfected 293T cells

Row | Binder | binding result [1] | binding result [2]
1 | B1 | binds | 
2 | B2 |  | binds
3 | B3 | binds | 
4 | B4 |  | binds
